# Data as given in the Immune Epitope Database (IEDB).
# How the values were obtained:
# HLA-B*35:01 = assay: IEDB peptide-MHC binding, purified MHC/competitive/fluorescence; filed as Kd, often an IC50 or EC50 that approximates it; ≥ and ≤ were set here for values at or beyond the usual limits of such assays
# HLA-B*15:01 [1] = assay: as above
# HLA-C*06:02 = assay: IEDB peptide-MHC binding, purified MHC/direct/fluorescence; filed as Kd, often an IC50 or EC50 that approximates it; ≥ and ≤ were set here for values at or beyond the usual limits of such assays
# HLA-A*30:01 = assay: IEDB peptide-MHC binding, purified MHC/competitive/fluorescence; filed as Kd, often an IC50 or EC50 that approximates it; ≥ and ≤ were set here for values at or beyond the usual limits of such assays; conditions: source organism: Human immunodeficiency virus 1
# HLA-B*39:01 = assay: as above
# HLA-A*02:06 = assay: as above; conditions: source organism: Human immunodeficiency virus 1
# HLA-A*02:03 = assay: as above; conditions: source organism: Human immunodeficiency virus 1
# HLA-B*07:02 [2] = assay: IEDB peptide-MHC binding, purified MHC/competitive/fluorescence; ≥ and ≤ were set here for values at or beyond the usual limits of such assays; conditions: source organism: Zaire ebolavirus
# HLA-B*46:01 [3] = assay: IEDB peptide-MHC binding, purified MHC/competitive/fluorescence; filed as Kd, often an IC50 or EC50 that approximates it; ≥ and ≤ were set here for values at or beyond the usual limits of such assays; conditions: source organism: Influenza A virus (A/swine/Italy/1521/98(H1N2))
# HLA-B*07:02 [4] = assay: IEDB peptide-MHC binding, purified MHC/direct/fluorescence; filed as Kd, often an IC50 or EC50 that approximates it; ≥ and ≤ were set here for values at or beyond the usual limits of such assays
# HLA-A*01:01 [5] = assay: as above
# HLA-B*58:01 = assay: as above
# HLA-B*44:02 = assay: as above
# HLA-B*40:01 = assay: as above
# HLA-A*11:01 = assay: as above
# HLA-B*18:01 = assay: as above
# HLA-A*03:01 = assay: as above
# HLA-C*12:03 = assay: as above
# HLA-B*27:05 = assay: as above
# HLA-B*15:01 [6] = assay: as above
# HLA-A*02:11 = assay: as above
# HLA-A*24:02 = assay: as above; conditions: source organism: Influenza A virus (A/duck/Mongolia/47/2001(H7N1))
# HLA-B*08:01 = assay: as above
# HLA-A*02:12 [7] = assay: IEDB peptide-MHC binding, purified MHC/competitive/fluorescence; filed as Kd, often an IC50 or EC50 that approximates it; ≥ and ≤ were set here for values at or beyond the usual limits of such assays; conditions: source organism: Vibrio cholerae
# HLA-A*02:01 [8] = assay: as above; conditions: source organism: Vibrio cholerae
# HLA-A*02:19 = assay: as above; conditions: source organism: Bacillus licheniformis
# HLA-A*31:01 = assay: IEDB peptide-MHC binding, purified MHC/direct/fluorescence; filed as Kd, often an IC50 or EC50 that approximates it; ≥ and ≤ were set here for values at or beyond the usual limits of such assays
# HLA-A*02:01 [9] = assay: as above
# HLA-A*69:01 = assay: as above
# HLA-B*15:17 = assay: IEDB peptide-MHC binding, purified MHC/competitive/fluorescence; filed as Kd, often an IC50 or EC50 that approximates it; ≥ and ≤ were set here for values at or beyond the usual limits of such assays; conditions: source organism: Hantaan virus 76-118
# HLA-A*26:01 [10] = assay: as above; conditions: source organism: Hantaan virus 76-118
# HLA-B*27:03 = assay: as above; conditions: source organism: Hantaan virus 76-118
# HLA-B*51:01 = assay: as above; conditions: source organism: Hantaan virus 76-118
# HLA-A*02:12 [11] = assay: IEDB peptide-MHC binding, purified MHC/direct/fluorescence; filed as Kd, often an IC50 or EC50 that approximates it; ≥ and ≤ were set here for values at or beyond the usual limits of such assays; conditions: source organism: Limestone Canyon virus
# HLA-B*57:01 = assay: as above; conditions: source organism: Orthohantavirus hantanense
# HLA-B*48:01 = assay: as above; conditions: source organism: Orthohantavirus hantanense
# HLA-B*46:01 [12] = assay: as above; conditions: source organism: Orthohantavirus hantanense
# HLA-A*68:02 = assay: as above; conditions: source organism: Limestone Canyon virus
# HLA-A*01:01 [13] = assay: IEDB peptide-MHC binding, purified MHC/competitive/fluorescence; filed as Kd, often an IC50 or EC50 that approximates it; ≥ and ≤ were set here for values at or beyond the usual limits of such assays
# HLA-A*24:03 = assay: IEDB peptide-MHC binding, purified MHC/direct/fluorescence; filed as Kd, often an IC50 or EC50 that approximates it; ≥ and ≤ were set here for values at or beyond the usual limits of such assays; conditions: source organism: Vibrio parahaemolyticus
# HLA-A*26:01 [14] = assay: as above; conditions: source organism: Vibrio cholerae
# HLA-C*14:02 = assay: as above
# [15] = source organism: Bacillus cereus G9241
# [16] = source organism: Mycobacterium tuberculosis variant bovis BCG str. Pasteur 1173P2
# [17] = source organism: Human immunodeficiency virus 1
# [18] = source organism: Influenza A virus (A/Puerto Rico/8/34/Mount Sinai(H1N1))
# [19] = source organism: Influenza A virus (A/duck/Mongolia/47/2001(H7N1))
# [20] = source organism: Bacillus licheniformis
# [21] = source organism: Hantaan virus 76-118
# [22] = source organism: Orthohantavirus hantanense
# [23] = source organism: Vibrio cholerae
# [24] = source organism: Francisella tularensis subsp. tularensis FSC198
# [25] = source organism: Francisella tularensis subsp. holarctica LVS
sequence,measurement,setting,value
FVHDSVQYF,Kd,HLA-B*35:01; [15],0.9 nM
same,Kd,HLA-B*15:01 [1]; [15],28.9 nM
same,Kd,HLA-C*06:02; [15],133 nM
YTWNGTQWV,Kd,HLA-C*06:02; [16],343 nM
EKLKSLFNTV,Kd,HLA-A*30:01,1140 nM
same,Kd,HLA-B*39:01; [17],≥ 20000 nM
same,Kd,HLA-A*02:06,343 nM
same,Kd,HLA-B*15:01 [1]; [17],≥ 20000 nM
same,Kd,HLA-A*02:03,≥ 20000 nM
SPQSLTTKP,IC50,HLA-B*07:02 [2],≥ 188000 nM
FLKDVMESM,Kd,HLA-B*46:01 [3],23.9 nM
same,Kd,HLA-B*07:02 [4]; [18],312 nM
same,Kd,HLA-A*01:01 [5]; [19],≥ 20000 nM
same,Kd,HLA-B*58:01; [19],≥ 20000 nM
same,Kd,HLA-B*44:02; [19],≥ 20000 nM
same,Kd,HLA-B*40:01; [19],≥ 20000 nM
same,Kd,HLA-A*11:01; [19],≥ 20000 nM
same,Kd,HLA-B*18:01; [19],≥ 20000 nM
same,Kd,HLA-A*03:01; [19],≥ 20000 nM
same,Kd,HLA-C*12:03; source organism: Influenza A virus (A/swine/Italy/1521/98(H1N2)),≤ 1 nM
same,Kd,HLA-B*27:05; [19],≥ 20000 nM
same,Kd,HLA-B*15:01 [6]; [18],220 nM
same,Kd,HLA-A*02:11; source organism: Influenza A virus H3N2,≤ 1 nM
same,Kd,HLA-A*24:02,≥ 20000 nM
same,Kd,HLA-B*08:01; [18],158 nM
NLNFDQAAL,Kd,HLA-A*02:12 [7],82.8 nM
same,Kd,HLA-A*02:01 [8],96.7 nM
RLIWSHHHI,Kd,HLA-A*02:19,87.9 nM
same,Kd,HLA-B*07:02 [4]; [20],12000 nM
same,Kd,HLA-B*58:01; [20],24.7 nM
same,Kd,HLA-A*31:01; [20],462 nM
same,Kd,HLA-A*02:01 [9]; [20],1200 nM
same,Kd,HLA-B*15:01 [6]; [20],296 nM
same,Kd,HLA-A*69:01; [20],1260 nM
IRKPKHLYV,Kd,HLA-B*15:17,≥ 20000 nM
same,Kd,HLA-B*39:01; [21],≥ 20000 nM
same,Kd,HLA-A*26:01 [10],≥ 20000 nM
same,Kd,HLA-B*27:03,≥ 20000 nM
same,Kd,HLA-B*51:01,≥ 20000 nM
same,Kd,HLA-A*02:12 [11],≥ 20000 nM
same,Kd,HLA-B*07:02 [4]; [22],≥ 20000 nM
same,Kd,HLA-A*01:01 [5]; [22],≥ 20000 nM
same,Kd,HLA-B*57:01,≥ 20000 nM
same,Kd,HLA-B*58:01; [22],≥ 20000 nM
same,Kd,HLA-B*48:01,≥ 20000 nM
same,Kd,HLA-B*44:02; [22],≥ 20000 nM
same,Kd,HLA-B*46:01 [12],≥ 20000 nM
same,Kd,HLA-A*31:01; [22],≥ 20000 nM
same,Kd,HLA-B*40:01; [22],≥ 20000 nM
same,Kd,HLA-A*11:01; [22],≥ 20000 nM
same,Kd,HLA-A*02:01 [9]; [22],≥ 20000 nM
same,Kd,HLA-B*18:01; [22],≥ 20000 nM
same,Kd,HLA-A*68:02,≥ 20000 nM
same,Kd,HLA-A*03:01; [22],≥ 20000 nM
same,Kd,HLA-C*06:02; [21],31 nM
same,Kd,HLA-B*27:05; [22],≥ 20000 nM
same,Kd,HLA-B*15:01 [6]; [22],≥ 20000 nM
same,Kd,HLA-A*02:11; source organism: Limestone Canyon virus,≥ 20000 nM
same,Kd,HLA-B*08:01; source organism: Hantavirus CRF367,14000 nM
same,Kd,HLA-A*69:01; [22],≥ 20000 nM
YAKFARITL,Kd,HLA-C*12:03; [16],≤ 1 nM
KSVFNSLY,Kd,HLA-A*01:01 [13]; source organism: Influenza A virus (A/X-31(H3N2)),1470 nM
LSTASSWSY,Kd,HLA-A*01:01 [13]; source organism: Influenza A virus (A/swine/Ohio/24366/2007(H1N1)),261 nM
AYYWNQNGF,Kd,HLA-B*07:02 [4]; [23],≥ 20000 nM
same,Kd,HLA-A*01:01 [5]; [23],≥ 20000 nM
same,Kd,HLA-B*58:01; [23],≥ 20000 nM
same,Kd,HLA-B*44:02; [23],≥ 20000 nM
same,Kd,HLA-B*40:01; [23],≥ 20000 nM
same,Kd,HLA-A*11:01; source organism: Vibrio parahaemolyticus,≥ 20000 nM
same,Kd,HLA-A*24:03,2.23 nM
same,Kd,HLA-A*02:01 [9]; [23],≥ 20000 nM
same,Kd,HLA-A*26:01 [14],≥ 20000 nM
same,Kd,HLA-A*03:01; [23],≥ 20000 nM
same,Kd,HLA-B*27:05; [23],≥ 20000 nM
same,Kd,HLA-B*08:01; [23],≥ 20000 nM
same,Kd,HLA-C*14:02; source organism: Vibrio cholerae 2740-80,≤ 1 nM
same,Kd,HLA-A*69:01; [23],≥ 20000 nM
AIYKNTIAY,Kd,HLA-B*35:01; [24],98.6 nM
same,Kd,HLA-A*11:01; [25],23.9 nM
same,Kd,HLA-A*03:01; [25],6.9 nM
same,Kd,HLA-C*14:02; [24],118 nM
